For 29 sequences, protein stability index results are on record in the supplement of paper PMC10567573.

The data set in a line: protein stability index of a GFP-peptide fusion (GPS, HEK-293T) (PSI 1-6); higher = more stable. To be noted: c terminus: a fixed tail appended.

± gives the standard deviation.
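Also: 24-mer peptide tiles fused after GFP, lentivirally expressed, FACS-sorted into six equal bins by GFP/DsRed ratio, decoded by Illumina sequencing, PSI is the read-weighted mean bin number.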

Turning to NKILVPLVLLRQMLLELTRRGQEP [BCL2L13], the protein stability index reads like this: (treatment: DMSO) 2.64 ± 1.6; (treatment: MLN4924 1 uM, 8 h) 2.92 ± 0.92.
As to NLEKTIFCLQKLISLHPFNPWNWG [C8orf76], the protein stability index reads like this: (treatment: DMSO) 2.53 ± 0.77; (treatment: MLN4924 1 uM, 8 h) 2.59 ± 0.5.
As for NLQPPASLQTGNHSNGPTDLSMKG [NOL4L], the protein stability index amounted to 4.66 ± 0.25 (treatment: DMSO) and 4.61 ± 0.21 (treatment: MLN4924 1 uM, 8 h).
NLRATDVRLMRQLLVINESIESIK [LURAP1L] returned a protein stability index (treatment: DMSO) of 2.41 ± 0.16 and a protein stability index (treatment: MLN4924 1 uM, 8 h) of 2.58 ± 0.35.
In the case of NMKNGANDVKHHRWFRSVDWEAVP [PRKX], the protein stability index runs as follows: (treatment: DMSO) 2.95 ± 0.33; (treatment: MLN4924 1 uM, 8 h) 3.08 ± 0.33.
Take NPSQKTGQALLTHLYQSSARRYAG [ELAVL3]: the protein stability index by setting is: (treatment: DMSO) 3.58 ± 0.23; (treatment: MLN4924 1 uM, 8 h) 3.4 ± 0.36.
NQYLYFLFAPTLIYRDSYPRNPTV [SOAT1] displayed a protein stability index (treatment: DMSO) of 3.26 ± 0.69 and a protein stability index (treatment: MLN4924 1 uM, 8 h) of 2.57 ± 0.62.
Consider NRRSSRETREYAPPSRGHGYRDYG [RBMY1A1], for which the protein stability index came to 4.27 ± 0.24 (treatment: DMSO) and 4.09 ± 0.23 (treatment: MLN4924 1 uM, 8 h).
For NSFGLRFGKREAAPGNHGRSAGRG [KISS1], the protein stability index amounted to 4.44 ± 0.4 (treatment: DMSO) and 4.4 ± 0.46 (treatment: MLN4924 1 uM, 8 h).
Regarding NTLRSQLGDRLNVEVDTAPTVDLN [KRT34], the protein stability index runs as follows: (treatment: DMSO) 4.84 ± 0.18; (treatment: MLN4924 1 uM, 8 h) 4.84 ± 0.15.
For the sequence NTTCVGRYPVCKFPSLQVTAILIE [FEM1C], the protein stability index by setting is: (treatment: DMSO) 2.67 ± 0.48; (treatment: MLN4924 1 uM, 8 h) 2.23 ± 0.21.
With NTVKVQVLYPDGQAQMIHPKPADF [INTS4], the protein stability index is 3.05 ± 0.48 (treatment: DMSO) and 3.08 ± 0.27 (treatment: MLN4924 1 uM, 8 h).
The corresponding values for NYLIFSQKPEFQDLSVEERSFVEK [RHOBTB3] are 3.61 ± 0.16 and 3.69 ± 0.27.
Regarding NYSQDAADACDIDEIEEVPTTSHR [NETO1], the protein stability index was determined as 5.55 ± 0.18 (treatment: DMSO) and 5.49 ± 0.17 (treatment: MLN4924 1 uM, 8 h).
PAADPPRYTFAPSVSLNKTARPFG [PDLIM7]: the protein stability index was 3.54 ± 0.27 (treatment: DMSO) and 3.64 ± 0.35 (treatment: MLN4924 1 uM, 8 h).
As for PADFSLGSLPGPGQTSGAREPPQA [VENTX], the protein stability index came out at 5.12 ± 0.2 (treatment: DMSO) and 5.16 ± 0.24 (treatment: MLN4924 1 uM, 8 h).
The matching figures for PAGTPPPTARHFQEHPRQQLATSS [MOSPD3]: 4.74 ± 0.27 and 4.83 ± 0.17.
The corresponding values for PALLEATGGAAGAGGAGRGEDEEN [KCTD13] are 5.62 ± 0.24 and 5.64 ± 0.24.
The corresponding values for PCYDVRYAPSCAKCKKKITGEIMH [PDLIM7] are 3.04 ± 0.39 and 2.97 ± 0.38.
Regarding PDEAARARLLQEGGGGVAAVVVLD [DUSP5], the protein stability index is, setting by setting: (treatment: DMSO) 4.3 ± 0.46; (treatment: MLN4924 1 uM, 8 h) 4.57 ± 0.13.
In the case of PDSMFLAMLAVVSCASIGSGEPPT [CDK11A], the protein stability index runs as follows: (treatment: DMSO) 2.74 ± 0.15; (treatment: MLN4924 1 uM, 8 h) 3.222 ± 0.003.
Regarding PDTMEKLRTHIDAIILALPEDLQG [DENND6A], the protein stability index stood at 3.02 ± 0.5 (treatment: DMSO) and 3.02 ± 0.23 (treatment: MLN4924 1 uM, 8 h).
Turning to PEEKIWEELSVLEVFEGREDSIFG [MAGEA6], the protein stability index reads like this: (treatment: DMSO) 4.23 ± 0.29; (treatment: MLN4924 1 uM, 8 h) 4.17 ± 0.39.
The corresponding values for PEWDTVTPEAKDLINKMLTINPSK [CAMK2A] are 4.886 ± 0.036 and 5.03 ± 0.12.
As for PFDMDSCLSRHSINPYSNRESRIL [DFFB], the protein stability index amounted to 3.24 ± 0.29 (treatment: DMSO) and 3.22 ± 0.29 (treatment: MLN4924 1 uM, 8 h).
For the sequence PFIVFGATGLTSGLLSLLLPETLN [SLC22A15], the protein stability index runs as follows: (treatment: DMSO) 3.19 ± 0.49; (treatment: MLN4924 1 uM, 8 h) 3.14 ± 0.42.
As to PGEFSDASMSPDATKPSHWCSVAY [SMAD6], the protein stability index was 3.07 ± 0.14 (treatment: DMSO) and 3.14 ± 0.19 (treatment: MLN4924 1 uM, 8 h).
In the case of PGHGGIMDRFDCQYLMATFVHVYI [CDS1], the protein stability index stood at 3.26 ± 0.46 (treatment: DMSO) and 3.1 ± 0.3 (treatment: MLN4924 1 uM, 8 h).
The corresponding values for PGHIGPPGPTGPKGISGHPGEKGE [EMID1] are 5.59 ± 0.17 and 5.07 ± 0.35.
